In this assay the target is T1, SA2–Scc1 cohesin subcomplex (SA2 80–1060, Scc1 281–420), purified recombinant (human, UniProt Q8N3U4;O60216).
T1 sequence 1: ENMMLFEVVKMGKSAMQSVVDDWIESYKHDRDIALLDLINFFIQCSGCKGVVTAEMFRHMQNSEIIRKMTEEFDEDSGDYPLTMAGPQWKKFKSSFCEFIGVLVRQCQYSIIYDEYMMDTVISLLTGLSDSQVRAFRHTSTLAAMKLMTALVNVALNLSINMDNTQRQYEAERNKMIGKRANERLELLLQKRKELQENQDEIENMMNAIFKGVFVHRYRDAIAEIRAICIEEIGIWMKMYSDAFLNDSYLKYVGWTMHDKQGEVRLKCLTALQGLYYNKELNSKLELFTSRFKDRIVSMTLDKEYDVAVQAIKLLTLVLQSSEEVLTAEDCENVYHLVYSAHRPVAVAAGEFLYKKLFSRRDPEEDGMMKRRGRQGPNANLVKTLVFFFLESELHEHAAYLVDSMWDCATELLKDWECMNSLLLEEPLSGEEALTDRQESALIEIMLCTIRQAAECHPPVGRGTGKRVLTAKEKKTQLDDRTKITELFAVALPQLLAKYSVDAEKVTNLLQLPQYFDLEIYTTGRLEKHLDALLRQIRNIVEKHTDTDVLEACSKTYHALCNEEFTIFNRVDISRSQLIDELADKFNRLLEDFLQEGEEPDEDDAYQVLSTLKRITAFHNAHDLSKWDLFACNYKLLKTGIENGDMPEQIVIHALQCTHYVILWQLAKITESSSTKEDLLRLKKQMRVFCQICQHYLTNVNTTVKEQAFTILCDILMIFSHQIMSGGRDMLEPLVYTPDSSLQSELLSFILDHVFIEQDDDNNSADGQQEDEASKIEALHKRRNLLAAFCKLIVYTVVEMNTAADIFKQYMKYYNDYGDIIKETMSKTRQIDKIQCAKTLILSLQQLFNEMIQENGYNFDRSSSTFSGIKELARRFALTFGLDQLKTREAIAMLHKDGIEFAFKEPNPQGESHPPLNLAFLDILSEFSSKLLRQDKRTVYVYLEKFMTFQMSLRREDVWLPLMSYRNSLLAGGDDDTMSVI
T1 sequence 2: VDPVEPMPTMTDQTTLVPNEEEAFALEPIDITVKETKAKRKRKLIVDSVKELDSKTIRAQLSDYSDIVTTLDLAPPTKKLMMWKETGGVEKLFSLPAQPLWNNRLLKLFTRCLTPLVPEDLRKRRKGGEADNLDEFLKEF
Nature of the assay: ITC.

From PMC4190070 (Nature structural & molecular biology, 2014) come the findings set out here.

B1: unphosphorylated Sgo1 peptide (residues 313–353) (peptide)
peptide: KSENKKTVPQKKMHKSVSSNDAYNFNLEEGVHLTPFRQKVSC
The term Kd denotes the equilibrium constant for the complex coming apart. The stoichiometry N is a count of units in the complex or per binding partner. As for B1, the Kd stood at 618 nM and the “stoichiometry N” value amounted to 1.
